B1: H2-Kb / Ed16-1 (parent complex)
chain 1: GEQVEQRPPHLSVREGDSAVITCTYTDPNSYYFFWYKQEPGASLQLLMKVFSSTEINEGQGFTVLLNKKDKRLSLNLTAAHPGDSAAYFCAVSGSNNRIFFGDGTQLVVKP
chain 2: EAAVTQSPRSKVAVTGGKVTLSCHQTNNHDYMYWYRQDTGHGLRLIHYSYVADSTEKGDIPDGYKASRPSQENFSLILELASLSQTAVYFCASRTGTDYTFGSGTRLLVI
chain 3: not shown
chain 4: IQKTPQIQVYSRHPPENGKPNILNCYVTQFHPPHIEIQMLKNGKKIPKVEMSDMSFSKDWSFYILAHTEFTPTETDTYACRVKHDSMAEPKTVYWDRDM
chain 5: SIINFEKL
B2: H2-Kb / Ed10 (parent complex)
chain 1: GEQVEQRPPHLSVREGDSAFIICTYTDSATAYFYWYKQEPGAGLQLLMSVFSNVDRKEEQGLTVLLNKKDKRLSLNLTAAHPGDSAVYFCAVRGTGYQNFYFGKGTSLTVIP
chain 2: AQTIHQWPVAEIKAVGSPLSLGCTIKGKSSPNLYWYWQATGGTLQQLFYSITVGQVESVVQLNLSASRPKDDQFILSTEKLLLSHSGFYLCAWSPGYEQYFGPGTRLTVL
chain 3: not shown
chain 4: B1 chain 4
chain 5: SIINFEKL

Variants of: B1
Test: % of reporter cells activated (NFAT-GFP), raw
Also: test concentration or dose not given here.

| ratio to parent | Variant |
| --- | --- |
| 0.777 | chain 5 I3C |
| 0.744 | chain 5 I3W |
| 0.889 | chain 5 I3L |
| 0.605 | chain 5 I3Q |
| 0.521 | chain 5 I3K |
| 0.592 | chain 5 I3S |
| 0.00742 | chain 5 I3Y |
| 0.172 | chain 5 I3D |
| 0.0814 | chain 5 I3F |
| 1.06 | chain 5 I3V |
| 0.0177 | chain 5 S1V |
| 0.00277 | chain 5 S1P |
| 0.0059 | chain 5 S1M |
| 0.038 | chain 5 S1K |
| 0.66 | chain 5 S1T |
| 0.0909 | chain 5 S1R |
| 0.0292 | chain 5 S1D |
| 0.943 | chain 5 F5C |
| 1.02 | chain 5 F5L |
| 0.818 | chain 5 F5R |
| 0.823 | chain 5 F5D |
| 0.943 | chain 5 F5H |
| 0.803 | chain 5 F5K |
| 0.976 | chain 5 F5A |
| 1.08 | chain 5 F5M |
| 0.699 | chain 5 F5W |

| ratio to parent | Variant |
| --- | --- |
| 0.917 | chain 5 F5S |
| 0.97 | chain 5 F5Q |
| 1.18 | chain 5 K7H |
| 0.781 | chain 5 K7C |
| 1.17 | chain 5 K7P |
| 0.771 | chain 5 K7V |
| 0.912 | chain 5 K7S |
| 1.01 | chain 5 K7Q |
| 1.09 | chain 5 K7R |
| 0.91 | chain 5 K7A |
| 0.903 | chain 5 K7N |
| 0.924 | chain 5 K7G |
| 0.559 | chain 5 K7E |
| 0.794 | chain 5 I2P |
| 0.912 | chain 5 I2D |
| 1.1 | chain 5 I2V |
| 0.849 | chain 5 I2F |
| 1.01 | chain 5 I2A |
| 0.976 | chain 5 I2E |
| 0.607 | chain 5 I2N |
| 1.04 | chain 5 I2C |
| 0.651 | chain 5 I2R |
| 0.627 | chain 5 I2H |
| 0.0158 | chain 5 N4H |
| 0.000769 | chain 5 N4M |
| 0.0372 | chain 5 N4D |

| ratio to parent | Variant |
| --- | --- |
| 0.0165 | chain 5 N4I |
| 0.211 | chain 5 N4K |
| 0.00253 | chain 5 N4C |
| 0.492 | chain 5 N4S |
| 0.124 | chain 5 N4A |
| 0.106 | chain 5 E6Y |
| 0.0174 | chain 5 E6A |
| 0.00877 | chain 5 E6R |
| 0.0059 | chain 5 E6L |
| 0.0356 | chain 5 E6T |
| 0.00132 | chain 5 E6P |
| 0.00707 | chain 5 E6V |
| 0.00912 | chain 5 E6C |
| 0.117 | chain 5 E6W |
| 0.187 | chain 5 E6G |
| 1.02 | chain 5 L8I |
| 0.85 | chain 5 L8C |
| 0.941 | chain 5 L8S |
| 0.968 | chain 5 L8T |
| 0.828 | chain 5 L8W |
| 0.951 | chain 5 L8K |
| 1.01 | chain 5 L8H |
| 0.834 | chain 5 L8D |
| 0.883 | chain 5 L8E |
| 0.935 | chain 5 L8R |

Variants of: B2
Test: % of reporter cells activated (NFAT-GFP), raw

| ratio to parent | Variant |
| --- | --- |
| 0.873 | chain 5 I3S |
| 0.972 | chain 5 I3L |
| 0.631 | chain 5 I3R |
| 0.913 | chain 5 I3M |
| 0.713 | chain 5 I3F |
| 0.739 | chain 5 I3W |
| 0.914 | chain 5 I3C |
| 0.933 | chain 5 I3P |
| 0.724 | chain 5 I3G |
| 0.0998 | chain 5 N4F |
| 0.847 | chain 5 N4D |
| 0.0807 | chain 5 N4I |
| 0.189 | chain 5 N4Q |
| 0.178 | chain 5 N4E |
| 0.104 | chain 5 N4R |
| 0.551 | chain 5 N4P |
| 0.13 | chain 5 N4C |
| 0.0278 | chain 5 N4T |
| 0.33 | chain 5 N4S |
| 0.127 | chain 5 N4M |
| 0.777 | chain 5 N4H |
| 0.424 | chain 5 N4W |
| 0.659 | chain 5 F5W |
| 0.688 | chain 5 F5K |
| 0.758 | chain 5 F5T |

| ratio to parent | Variant |
| --- | --- |
| 0.857 | chain 5 F5C |
| 0.912 | chain 5 F5A |
| 0.897 | chain 5 F5D |
| 0.925 | chain 5 F5L |
| 0.437 | chain 5 F5P |
| 0.759 | chain 5 S1C |
| 0.524 | chain 5 S1N |
| 0.913 | chain 5 S1V |
| 0.814 | chain 5 S1I |
| 0.888 | chain 5 S1E |
| 0.978 | chain 5 S1G |
| 0.841 | chain 5 S1K |
| 1.02 | chain 5 S1M |
| 0.946 | chain 5 S1P |
| 0.668 | chain 5 K7R |
| 0.00697 | chain 5 K7E |
| 0.744 | chain 5 K7S |
| 0.726 | chain 5 K7N |
| 0.402 | chain 5 K7Y |
| 0.183 | chain 5 K7H |
| 0.0405 | chain 5 K7Q |
| 0.916 | chain 5 L8H |
| 0.721 | chain 5 L8E |
| 0.74 | chain 5 L8S |
| 0.721 | chain 5 L8V |

| ratio to parent | Variant |
| --- | --- |
| 0.702 | chain 5 L8W |
| 0.956 | chain 5 L8Y |
| 0.862 | chain 5 L8N |
| 0.885 | chain 5 L8P |
| 0.858 | chain 5 L8A |
| 0.813 | chain 5 L8M |
| 0.384 | chain 5 E6M |
| 0.0597 | chain 5 E6L |
| 0.19 | chain 5 E6Q |
| 0.00258 | chain 5 E6I |
| 0.0117 | chain 5 E6T |
| 0.00689 | chain 5 E6V |
| 0.955 | chain 5 I2L |
| 0.876 | chain 5 I2K |
| 0.941 | chain 5 I2F |
| 0.966 | chain 5 I2E |
| 0.933 | chain 5 I2M |
| 0.712 | chain 5 I2R |
| 0.977 | chain 5 I2D |
| 0.841 | chain 5 I2N |
| 0.988 | chain 5 I2S |
| 1.02 | chain 5 I2A |
| 0.914 | chain 5 I2Q |

— PMC11480844 (2024)
